Experiment [1] deals with T1, rhOX40-Avi-His-bio (human, UniProt P43489 29-214, biotin joined covalently to the Avi tag by BirA).
T1 construct: range 29-214; Biotinylated form of rhOX40-Avi-His, captured on the SA chip for SPR; also called 生物素标记的抗原rhOX40-Avi-His-bio; huOX40; not shown: Avi tag and His tag from the vector pCD-Avi-His
T1 sequence (looked up): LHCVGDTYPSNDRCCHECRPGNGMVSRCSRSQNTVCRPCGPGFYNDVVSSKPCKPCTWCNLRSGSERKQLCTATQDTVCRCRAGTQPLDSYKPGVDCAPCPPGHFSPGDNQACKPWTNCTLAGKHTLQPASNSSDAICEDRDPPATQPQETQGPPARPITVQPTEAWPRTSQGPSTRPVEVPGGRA
Kind of experiment: SPR, Biacore T200, rhOX40-Avi-His-bio on SA chip, antibody as analyte. (In general: Surface plasmon resonance follows binding to a sensor surface in real time, without labels.)

In experiment [2] the target is T1, rhOX40-Avi-His-bio. Kind of experiment: SPR.

B1: 全人源抗huOX40单克隆抗体A2-1 (antibody, IgG1, V domains shown)
VH: DVQLQESGPGLVKPSETLSLTCTVSGDSVSDSGAYWVWIRQPPGKGLEWIGTIAPARGDTLYNPSLKSRVTISVDTSKNQFSLKLSSVTAADTSVYYCARDVWYIDYWGQGTLVTVSS
VL: DIVLTQSPATLSLSPGERATLSCRASEDIGTWLAWYQQKPGQAPRLLIYHTDLRATGVPTRFSGSGSGTDFTLTISSLEPEDFAVYYCQQYASYPLTFGQGTKLEIK
For orientation: Kd means the concentration at which binding is half-saturated. A high value points to lower affinity. Turning to B1, in the experiment with rhOX40-Avi-His-bio [1], the Kd was around 200 pM. In addition, in the experiment with rhOX40-Avi-His-bio [2], the “fold increase of affinity over A2” value is ~540 倍.

B2: 全人源抗huOX40单克隆抗体B11-11 (antibody, IgG1, V domains shown)
VH: DVQLQESGPGLVKPSETLSLTCTVSGGSISADGFIWGWIRQPPGKGLEWIGGITTNGGYTDYNPSLKSRVTISVDTSKNQFSLKLSSVTAADTSVYYCARWFWDVSYGFDTWGQGTLVTVSS
VL: DIVMTQSPLSLPVTPGEPASISCRSSQSVDSDEYSFMHWYLQKPGQAPQLLIYRTDQRASGVPTRFSGSGSGTDFTLKISRVEAEDVGVYYCQQTPTYTFGQGTKLEIKR
In the case of B2, the equilibrium dissociation constant (Kd) in the experiment with rhOX40-Avi-His-bio [1] was around 776 pM. The “fold increase of affinity over B11” value in the experiment with rhOX40-Avi-His-bio [2] was ~650 倍.

Values taken from patent CN112794907A (ANHUI ANKE BIOTECHNOLOGY GROUP CO LTD, dated 2021).
